Tests used:
human Trop2 on cells [1] = biological target: T1, human Trop2 on cells (human, UniProt P09758 27-323); experiment: flow cytometry on BxPC-3 tumor cells
T1 construct: whole, on cells; also called hTrop2; 293T-human Trop2 cells
T1 sequence (looked up): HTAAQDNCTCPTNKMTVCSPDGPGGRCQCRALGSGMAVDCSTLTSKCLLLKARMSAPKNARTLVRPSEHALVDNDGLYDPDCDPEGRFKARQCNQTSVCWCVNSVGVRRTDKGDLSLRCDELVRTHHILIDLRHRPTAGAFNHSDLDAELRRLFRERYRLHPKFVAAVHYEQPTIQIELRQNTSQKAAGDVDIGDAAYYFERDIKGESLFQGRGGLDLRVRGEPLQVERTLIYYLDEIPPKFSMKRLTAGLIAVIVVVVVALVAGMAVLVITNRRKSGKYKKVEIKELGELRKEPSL
Protocol: BxPC-3 tumor cells (the Cell Bank of the Chinese Academy of Sciences, #TCHu 12) were digested with 3 mL of TrypLE, and the digestion was stopped with 7 mL of the corresponding medium. […] The cell solution was centrifuged, and the cells were washed once with PBS+[…] buffer. […] The cells were washed once with PBS+0.50% BSA. The cells were incubated at 4° C. for 1 h in the dark with 100 μL of Alexa Fluor 488 goat anti-human IgG (Life technologies, #A-11013) diluted at 1:1000, and washed twice with PBS+0.50% BSA. The cells were resuspended in 200 μL of PBS+0.50% BSA. The suspension was centrifuged at 4° C. for 5 min at 2000 rpm and tested using a FACS verse flow cytometer or NovoCyte flow cytometer (ACEA Biosciences). All procedures were performed on ice.

[2] = biological target: T2, mouse Trop2-his protein (Sino Biological, #50922-M08H) (mouse, UniProt Q8BGV3 25-270); experiment: ELISA, plate coated with mouse Trop2-his protein, anti-human IgG (H+L)-HRP, OD450 nm
T2 construct: bought protein; also called mouse Trop2 protein; not shown: his tag
T2 sequence (looked up): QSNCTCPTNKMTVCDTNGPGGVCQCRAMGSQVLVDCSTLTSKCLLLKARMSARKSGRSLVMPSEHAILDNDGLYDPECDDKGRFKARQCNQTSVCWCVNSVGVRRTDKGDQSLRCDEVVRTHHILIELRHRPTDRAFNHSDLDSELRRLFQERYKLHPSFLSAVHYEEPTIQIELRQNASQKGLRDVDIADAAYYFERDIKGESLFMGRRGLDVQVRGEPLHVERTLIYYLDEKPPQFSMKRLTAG
Protocol: An ELISA plate was coated with 100 μL of 1 μg/mL mouse Trop2-his protein (Sino Biological, #50922-M08H) in PBS at 4° C. overnight. The plate was blocked with 200 μL of PBST (PBS+0.05% tween 20)+2% BSA at 37° C. for 1 h. The plate was washed 4 times with PBST. 100 μL of Trop2 antibody diluted in a gradient (5-fold dilution, starting concentration: 33.33 nM) was added to the ELISA plate and the plate was incubated at 37° C. for 1 h. The plate was washed 4 times with PBST. 100 μL of anti-human IgG (H+L)-HRP (Sigma, #A8667) diluted in 1:4000 was added and the plate was incubated at 37° C. for 1 h. The plate was washed 4 times with PBST. 100 μL of TMB substrate (Invitrogen, #88-7025-88) was added and the plate was incubated at room temperature for 5 min, and then 50 μL of stop buffer (BBI life sciences, #E661006-0200) was added to stop the reaction. The OD450 nm reading was recorded using a microplate reader (Perkin Elmer, EnSpire).

human Trop2 on cells [3] = biological target: T1, human Trop2 on cells; experiment: cell-based or functional assay
[4] = biological target: T3, human TROP2 protein (Sino Biological, #10428-H08H) (human, UniProt P09758 27-274); experiment: SPR, Biacore T200, antigen immobilised on CM5 chip
T3 construct: bought protein; also called human Trop2 protein antigen (His tag); not shown: His tag
T3 sequence (looked up): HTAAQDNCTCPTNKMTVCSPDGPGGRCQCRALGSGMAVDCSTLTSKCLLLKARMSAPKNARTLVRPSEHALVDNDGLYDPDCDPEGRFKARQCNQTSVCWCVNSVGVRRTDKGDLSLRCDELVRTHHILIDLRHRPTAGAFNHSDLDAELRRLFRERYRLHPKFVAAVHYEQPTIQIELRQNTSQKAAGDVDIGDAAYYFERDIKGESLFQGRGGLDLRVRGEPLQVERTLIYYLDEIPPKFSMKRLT
Protocol: (§1) HBS-EP+ (10 mM HEPES, 150 mM NaCl, 3 mM EDTA, and 0.05% P20, pH 7.4, GE Healthcare, BR-1001-88) was used as a running buffer throughout the test. […] Data were analyzed using Biacore T200 (GE Healthcare, T200 model, #BIAC-B20-03) Evaluation 3.1 software.

[5] = biological target: T4, monkey Trop2 protein (Sino Biological, #90893-C08H) (monkey, UniProt A0A2K5UE71 27-274); experiment: SPR, Biacore T200, antigen immobilised on CM5 chip
T4 construct: bought protein; also called monkey Trop2 protein antigen (His tag)
T4 sequence: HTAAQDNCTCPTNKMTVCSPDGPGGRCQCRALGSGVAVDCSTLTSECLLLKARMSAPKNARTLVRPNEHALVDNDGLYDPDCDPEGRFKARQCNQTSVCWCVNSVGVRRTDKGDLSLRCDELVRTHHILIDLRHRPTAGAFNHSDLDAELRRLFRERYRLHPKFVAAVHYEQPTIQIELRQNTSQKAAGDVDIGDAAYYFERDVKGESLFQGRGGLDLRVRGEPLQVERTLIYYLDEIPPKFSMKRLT
Protocol: as §1

| Binder | EC50 (human Trop2 on cells [1]) [pM] | Maximum MFI value (human Trop2 on cells [1]) [MFI] | binding result [2] | ADCC (donor 1152#) EC50(nM), BxPC-3 + PBMC, LDH release (human Trop2 on cells [3]) [nM] | ADCC (donor 2153#) EC50(nM), BxPC-3 + PBMC, LDH release (human Trop2 on cells [3]) [nM] | fold lower EC50 than the reference antibody hRS7 (human Trop2 on cells [1]) [fold] | Kd [4] [pM] | koff [4] [s⁻¹] | kon [4] [M⁻¹ s⁻¹] | Kd [5] [pM] | koff [5] [s⁻¹] | kon [5] [M⁻¹ s⁻¹] | ADCC (donor 1152#) Maximum cell killing % (human Trop2 on cells [3]) [%] | ADCC (donor 1152#) Minimum cell killing % (human Trop2 on cells [3]) [%] | ADCC (donor 2153#) Maximum cell killing % (human Trop2 on cells [3]) [%] | ADCC (donor 2153#) Minimum cell killing % (human Trop2 on cells [3]) [%] |
| --- | --- | --- | --- | --- | --- | --- | --- | --- | --- | --- | --- | --- | --- | --- | --- | --- |
| PR001130 (antibody, human IgG1, kappa, V domains shown, fully human IgG1/kappa; also called antibody No. (2)) VH: QVQLQESGPGLVKPSGTLSLTCAVSGDSISSHNWWSWVRQPPGKGLEWIGEIYHSGITSYNPSLKSRVTISVDKSKNQFSLKLNSVTAADTAMYYCARGSGVISYFDYWGQGTLVTVSS VL: DIQMTQSPSTLSASVGDRVTITCRASQSIGNWLAWYQQKPGKAPKLLIYKASSLESGVPSRFSGSGSGTEFTLTISSLQPDDFATYYCQQYDSYSPITFGQGTRLEIKR | 3850 | 9960 | no binding | – | – | – | – | – | – | – | – | – | – | – | – | – |
| comparative example 2 antibody Tab (hRS7) (antibody, human IgG1, kappa, V domains shown, prepared on the basis of sacituzumab govitecan (ChemPartner, #T07-001); naked antibody) VH: QVQLQQSGSELKKPGASVKVSCKASGYTFTNYGMNWVKQAPGQGLKWMGWINTYTGEPTYTDDFKGRFAFSLDTSVSTAYLQISSLKADDTAVYFCARGGFGSSYWYFDVWGQGSLVTVSS VL: DIQLTQSPSSLSASVGDRVSITCKASQDVSIAVAWYQQKPGKAPKLLIYSASYRYTGVPDRFSGSGSGTDFTLTISSLQPEDFAVYYCQQHYITPLTFGAGTKVEIKR | 2080 | 8730 | – | 0.0391 | 0.08 | – | 601 | – | – | 619 | – | – | 42.1 | 4.32 | 62.6 | 10.2 |
| PR001133 (antibody, human IgG1, kappa, V domains shown, fully human IgG1/kappa; also called antibody No. (5)) VH: QVNLVESGGGVVQPGRSLKLSCAASGFTFSSYGMHWVRQAPGKGLEWVALIWSDGTNRYYTESVKGRFTISRDNSKNTLSLQMKSLRAEDTAVYYCAKDGWGTYGEYFQHWGQGTLVTVSS VL: DIQMTQSPSSLSASVGDRVTITCRASQNINSYLHWYQQKPGKAPKLLIYAASSLQSGVPSRFSGSGSGTDFTLTISSLQPEDFAIYYCQQSYSIPPITFGQGTRLEIKR | 2070 | 8950 | no binding | – | – | – | – | – | – | – | – | – | – | – | – | – |
| PR001162 (antibody, human IgG1, kappa, V domains shown, fully human IgG1/kappa; also called antibody No. (23)) VH: QVQLVESGGGVVQPGTSLRLSCVASGFTFSNDGMHWVRQAPGMGLEWVAIMWFDGGSKYYADSVKGRFTISRDNSKNTLYLQMNNLRAEDTAVYYCARDHPHYLGSGSFDYWGQGTLVTVSS VL: EIVLTQSPATLSLSPGERATLSCRASQSVSSYLAWYQQKPGQAPRLLIYDASNRATGIPARFSGSGSGTDFTLTISSLQAEDVAVYYCQQYYSTPYTFGQGTKLEIKR | 1120 | 9110 | no binding | – | – | ~2 | – | – | – | – | – | – | – | – | – | – |
| PR001139 (antibody, human IgG1, kappa, V domains shown, fully human IgG1/kappa; also called antibody No. (8)) VH: QVQLVESGGGVVQPGRSLRLSCAASGFTFSSFGMQWVRQGPGKGLEWVAVMWFDGSNKYYVDSVKGRFTISRDNSKNTLYLQMNSLRAEDTAVYYCARLDFSGWPLIDYWGQGTLVTVSS VL: not shown | 3140 | 9360 | binds | – | – | – | – | – | – | – | – | – | – | – | – | – |

Continued, in another order:

| EC50 (human Trop2 on cells [1]) [pM] | Maximum MFI value (human Trop2 on cells [1]) [MFI] | binding result [2] | ADCC (donor 1152#) EC50(nM), BxPC-3 + PBMC, LDH release (human Trop2 on cells [3]) [nM] | ADCC (donor 2153#) EC50(nM), BxPC-3 + PBMC, LDH release (human Trop2 on cells [3]) [nM] | fold lower EC50 than the reference antibody hRS7 (human Trop2 on cells [1]) [fold] | Kd [4] [pM] | koff [4] [s⁻¹] | kon [4] [M⁻¹ s⁻¹] | Kd [5] [pM] | koff [5] [s⁻¹] | kon [5] [M⁻¹ s⁻¹] | Binder | ADCC (donor 1152#) Maximum cell killing % (human Trop2 on cells [3]) [%] | ADCC (donor 1152#) Minimum cell killing % (human Trop2 on cells [3]) [%] | ADCC (donor 2153#) Maximum cell killing % (human Trop2 on cells [3]) [%] | ADCC (donor 2153#) Minimum cell killing % (human Trop2 on cells [3]) [%] |
| --- | --- | --- | --- | --- | --- | --- | --- | --- | --- | --- | --- | --- | --- | --- | --- | --- |
| 1150 | 10800 | no binding | 0.0279 | 0.0547 | ~2 | 530 | 0.000252 | 475000 | 374 | 0.000179 | 479000 | PR001142 (antibody, human IgG1, kappa, V domains shown, fully human IgG1/kappa; also called antibody No. (9)) VH: QVQLQESGPGLVKPSGTLSLTCAVSGDSISSNNWWSWVRQPPGKGLEWIGEIYPGGNPNYNPSLKSRVTISVDKSKNQFSLKLNSVTAADTAVYYCARGSGVISYFDYWGQGTLVTVSS VL: DIQMTQSPSTLSASVGDRVTITCRASQSIGHWLAWYQQKPGKAPKLLIYKASSLESGVPSRFRGSGSGTEFTLTISSLQPDDFATYYCQQYSSYSPITFGQGSRLEIKR | 41.6 | 4.47 | 58.8 | 9.28 |
| 1700 | 8410 | no binding | – | – | – | – | – | – | – | – | – | PR001128 (antibody, human IgG1, kappa, V domains shown, fully human IgG1/kappa; also called antibody No. (1)) VH: QVQLQESGPGLVKPSGTLSLTCAVSGGSISSSNWWSWVRQPPGKGLEWIGEIFHSGTTYYNPSLKSRVTILVDKSKNQFSLKLSSVTAADTAVYYCARDNTKSWDHFDHWGQGTLVTVSS VL: EIVLTQSPATLSLSPGERATLSCRASQSVGSYLAWYQQKPGQAPSLLIYDASNRATGIPARFSGSGSGTDFTLTISSLEPEDFAVYYCQQRTNWYTFGQGTKLEIKR | – | – | – | – |
| – | – | no binding | 0.0324 | 0.0616 | – | 495 | 0.000152 | 307000 | 491 | 0.000125 | 255000 | PR001165 (antibody, human IgG1, kappa, V domains shown, fully human IgG1/kappa; also called antibody No. (26)) VH: QVQLVESGGGVVQPGRSLRLSCEASGFTFSHYGMHWVRQAPGKGLEWVAVIWYDGIKTYYVESVKGRFTISRDNSKNTLNLQMNRLRAEDTAVYYCARDGGFGESNYYGLDVWGQGTTVTVSS VL: DIQLTQSPSFLSASVGDRVTITCRASQGISSYLGWYQQKPGKAPKLLIYIASTLQSGVPSRFSGSGSGTEFTLTISSLQPEDFATYYCQQLNSYPYTFGQGTKLEIKR | 39 | 5.79 | 70.8 | 14 |

From patent US20240067748A1 (NONA BIOSCIENCES SUZHOU, published 2024)
